Assay results: publication PMC2668917

Biological target: GST-tagged Nup358-IR (Nup358 internal repeat/E3 ligase domain) (UniProt P49792)
Assay: SPR

| Kd [µM] | Substance |
| --- | --- |
| 0.02 | SUMO-1/2 chimera modified His-RanGAP1-NΔ419 (from UniProt P46061 420-589; P63165 1-30; P55854 26-46; P63165 52-97) |
| 0.007 | SUMO-1 modified His-RanGAP1-NΔ419 (from UniProt P46061 420-589; P63165 1-97) |
| 0.036 | SUMO-2 modified His-RanGAP1-NΔ419 (from UniProt P46061 420-589; P55854 1-92) |
